What was measured:
[1] = molecular target: human cMET (MET, c-Met, HGF receptor) on cells (human) (UniProt P08581); experiment: cell-based or functional assay
[2] = molecular target: human cMET (MET, c-Met, HGF receptor) on cells (human) (UniProt P08581); experiment: flow cytometry, inhibition of HGF (50 ng/mL) binding to BxPC3 cells
[3] = molecular target: human cMET (MET, c-Met, HGF receptor) on cells (human) (UniProt P08581); experiment: flow cytometry, inhibition of HGF (50 ng/mL) binding to MKN45 cells

human cMET (MET, c-Met, HGF receptor) on cells (human), sequence (P08581 25-1390): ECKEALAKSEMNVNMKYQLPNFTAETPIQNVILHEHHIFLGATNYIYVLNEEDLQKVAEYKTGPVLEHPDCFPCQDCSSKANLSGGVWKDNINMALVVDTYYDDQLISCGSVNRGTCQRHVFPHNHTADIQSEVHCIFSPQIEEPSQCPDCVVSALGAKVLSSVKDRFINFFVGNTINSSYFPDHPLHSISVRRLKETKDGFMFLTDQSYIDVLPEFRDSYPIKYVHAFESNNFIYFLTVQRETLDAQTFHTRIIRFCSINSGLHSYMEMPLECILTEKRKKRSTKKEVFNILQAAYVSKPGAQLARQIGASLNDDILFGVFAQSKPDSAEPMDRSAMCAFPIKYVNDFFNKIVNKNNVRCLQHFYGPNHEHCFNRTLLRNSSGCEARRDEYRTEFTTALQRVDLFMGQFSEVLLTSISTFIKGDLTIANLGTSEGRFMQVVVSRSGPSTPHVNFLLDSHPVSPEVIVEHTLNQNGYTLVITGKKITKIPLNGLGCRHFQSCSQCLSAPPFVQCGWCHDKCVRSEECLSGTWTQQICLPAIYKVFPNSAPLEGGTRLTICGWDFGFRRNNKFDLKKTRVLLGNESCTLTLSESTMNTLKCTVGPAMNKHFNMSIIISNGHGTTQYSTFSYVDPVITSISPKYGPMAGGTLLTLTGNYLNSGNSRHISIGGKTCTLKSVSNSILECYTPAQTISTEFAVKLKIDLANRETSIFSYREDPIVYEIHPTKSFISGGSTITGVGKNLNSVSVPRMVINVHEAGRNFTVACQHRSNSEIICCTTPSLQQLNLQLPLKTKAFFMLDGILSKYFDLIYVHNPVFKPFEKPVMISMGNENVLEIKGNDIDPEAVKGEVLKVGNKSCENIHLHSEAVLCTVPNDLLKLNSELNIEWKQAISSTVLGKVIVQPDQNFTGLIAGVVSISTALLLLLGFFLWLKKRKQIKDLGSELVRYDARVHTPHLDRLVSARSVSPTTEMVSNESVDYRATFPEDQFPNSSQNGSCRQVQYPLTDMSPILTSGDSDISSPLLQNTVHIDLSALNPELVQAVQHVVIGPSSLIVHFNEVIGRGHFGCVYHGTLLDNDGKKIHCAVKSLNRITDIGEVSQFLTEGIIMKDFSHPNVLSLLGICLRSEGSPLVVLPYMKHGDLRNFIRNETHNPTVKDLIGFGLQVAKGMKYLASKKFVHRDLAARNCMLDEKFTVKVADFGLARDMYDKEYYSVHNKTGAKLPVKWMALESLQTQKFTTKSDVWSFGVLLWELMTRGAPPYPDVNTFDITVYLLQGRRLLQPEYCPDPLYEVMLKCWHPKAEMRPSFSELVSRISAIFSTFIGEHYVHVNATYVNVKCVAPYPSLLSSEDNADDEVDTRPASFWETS

5D5 (antibody)
percent induction of NCI-H441 cell growth (WST-8), normalised to 100 ng/mL HGF [1]: 92%

huIgG-SMCC-DM1 (antibody)
in vitro cytotoxicity in MET-expressing MKN45 cells, EC50 [1]: > 30 nM

224G11 (antibody)
% inhibition of HGF binding [2]: 50% | % inhibition of HGF binding [3]: 67%

— US20180230218A1
